From the DeepSol protein solubility set

Assay: soluble on expression in E. coli; label from the status in PepcDB or PDB records

Sequence | soluble on expression in E. coli
MGSDKIHHHHHHMQFGKTDTPEDIDFTLPKDHPDTKKILSEAKPGKHFNVYVGCAKWNKTDLKNFYPKGTKDELQYYATQFNSIELNATFYKSPSKDQVQTWKAKAAKGFKFFPKIPNTISHFKRLVGVETIVEEFCDAVVLFEENLGMSFLQMHDNFKPKDMDKLDAFLKKFPASVPLAVELRNEEWYSDKNVQDDLHAMLVKYKKTFVLVDTAARRDIMHMRLTSDKAFIRYVGANHESDYARLDDWIKRIKTWRKEGLNELYFFVHQNVELESPLLSAYFIEKMNKEFDLDLTVPQTIKKKQ | not soluble
GMTQHITRMRREIDEIPEAVQRLLDHGAQDVARVAAVLRLRDPSFVATVARGSSDHVCTYLSYAAELLLGLPVASLGPSVASVYDARLRLDRALCLAVSQSGKSPDIVAMTRNAGRDGALCVALTNDAASPLAGVSAHTIDIHAGPELSVAATKTFVTSAVAGLMLLADWAEDDGLRAALGNLPETLAAASRIDWPEMRVAIGARPSLFTLGRGTSLAVSNEAALKFKETCQLHAESYSSAEVLHGPVSIVEEGFPVLGFAAGDAAEAPLAEIADQIAAKGATVFATTGRVTRARVLEHVRSGHALTDPLSLIVSFYSMVEAFASERGIDPDAPRHLNKVTETV | soluble
MDFKDILRQLSERIEKLRDNLQTEEATKNALIMPFIQAMGYDVFNPLEVIPEFTCDIGTKKGEKIDYAIMRDNEPIILIECKHWRDTLTLADNQLLRYFHVSSAKFGMLTNGIIYRFYTDLDQANKMDEKPFLEVNMLDLRDNQIEELKQFHKSYFDVDKILSTASELKYMKELKDLILAEMNEPSEQFVRMLAKQVYDGIITAKIFEQFKDLTQKSFKSVINDLITARFKTVMDKSKEVAASEEQSQEQDDSNEPLVVTTEAEMEAYMIVKGILRKYINIDRIASRDTQSYFSVLLDDNNRKPICRFYFNTANKYLATFEEGKKEVKTLLNSLDDLFMHEKSIAKSLALYVDTEESALIVKSKE | soluble
MVCSRSVSLLFTLLVGVYASTATDPIDSISTQGADILNRAKLTGQTVRQCSCSEQRVCVEEMKLQAKDCTVPCFQKFSSITSRPNDLKKCFDEKDNILEDFLTCFENRVEACVNDQHGPQIQKTDIRGIFKVTEKSIATQTNTFQTMIKPIKHILDATGDFALCVKDCFLEKNKSGFCFDRKGCQPLVAETKARQSFRACTKKMHWKREAGELCECSVQAGVDSRELRQYCAMFKLMRRRAPMRKSRG | not soluble
MGSDKIHHHHHHMTVKAKRFRIGVEGATTDGREIQREWLVQMAASYNPTVYTALINLEHIKSYLPESTFNRYGRVTGLVAEEIQDGPLAGKMALYADIEPTDALVELVKKGQKLFTSMEVSTKFADTGKAYLVGLGATDDPASLGTEMLAFSASAAHNPLANRKQNPENLFSEAVETLIELEEVQDEKPSLFARVTALFTKKEQTDEARFSDVHKAVELVASEQQNLSERTDKSLSEQDKRLSELESSLQEQLAAFAELEQKLSSEDSRKDYRQRAPGGDAPAGTLTNC | not soluble
MMLSLNNLQNIIYNPVIPYVGTIPDQLDPGTLIVICGHVPSDADRFQVDLQNGSSVKPRADVAFHFNPRFKRAGCIVCNTLINEKWGREEITYDTPFKREKSFEIVIMVLKDKFQVAVNGKHTLLYGHRIGPEKIDTLGIYGKVNIHSIGFSFSSDLQSTQASSLELTEISRENVPKSGTPQLSLPFAARLNTPMGPGRTVVVKGEVNANAKSFNVDLLAGKSKDIALHLNPRLNIKAFVRNSFLQESWGEEERNITSFPFSPGMYFEMIIYCDVREFKVAVNGVHSLEYKHRFKELSSIDTLEINGDIHLLEVRSW | soluble
MKLNKQNLTQLAPEVKLPAYTLADTRQGIAHIGVGGFHRAHQAYYTDALMNTGEGLDWSICGVGLRSEDRKARDDLAGQDYLFTLYELGDTDDTEVRVIGSISDMLLAEDSAQALIDKLASPEIRIVSLTITEGGYCIDDSNGEFMAHLPQIQHDLAHPSSPKTVFGFICAALTQRRAAGIPAFTVMSCDNLPHNGAVTRKALLAFAALHNAELHDWIKAHVSFPNAMVDRITPMTSTAHRLQLHDEHGIDDAWPVVCEPFVQWVLEDKFVNGRPAWEKVGVQFTDDVTPYEEMKIGLLNGSHLALTYLGFLKGYRFVHETMNDPLFVAYMRAYMDLDVTPNLAPVPGIDLTDYKQTLVDRFSNQAIADQLERVCSDGSSKFPKFTVPTINRLIADGRETERAALVVAAWALYLKGVDENGVSYTIPDPRAEFCQGLVSDDALISQRLLAVEEIFGTAIPNSPEFVAAFERCYGSLRDNGVTTTLKHLLKKPV | soluble
MSLHIHILGICGTFMGGVAMLARQLGHKVTGSDANVYPPMSTMLEAQGIEIIEGFDPVQLEPKPDLVVIGNAMSRGNPCVEYVLNHNLRYTSGPQWLQDFLLHDRWVIAVSGTHGKTTTSSMIAWVLEHCGYQPGFLVGGVLGNFGISARLGESMFFVVEADEYDSAFFDKRSKFVHYHPRTLVMNNLEFDHADIFDNLEAIKRQFHHLVRTVPGNGRILAPKQDEALADVLQRGCWSETEFSGEQGEWQAEKITADGSQFHVLLKGERVGQVNWSLVGDHNVSNALMAIAAARHVGVAPELACEALGLFVNTKRRLELKGEINGVTVYDDFAHHPTAIELTLGGLRNKVGDKKIIAVLEPRSATMKLGVHKETLAASLHSADSVYLYQPSNIPWSVEEVAKQCQQPAQVSANMDEFVAMIAKEAQAGDQILVMSNGGFEGIHGKLLAALQQKEGHHHHHH | soluble
MPMLTRILLLLCVALNAPLASAKETLHIYAASSMTNAVNALVADYSQQHDVKLVTVYGGSSSLARQIEAGAPADLFISANEEWANYLVEKGLVKPNKVVTLAANSLVLIRPTAQPVASFELQDAAAWQTALADSRLAVAQVDAVPAGMYAKQALQHAGVWPELESRLAQTNNVRLALALVERGESPLGIVYKTDALLSDKVTIVTAFSAQSHQPIRYPLAQLNDKAASAEWVAYLRSDAAQQILQRFGFESVSE | not soluble
MTVWDRPEPPHRPVPLDRERIVAAAVALADEGGLTAVSVRKVAARLDAGPMRLYGFISTKDELFDLMVDAVYAEILPEERAGDWREALRVLAHRTRQAALRHPWLADLLGGRPALGPNGLAVAEATLAALDGLADVDTVMRAVETVSSYFTGAVRREIADLRAERATGLSKPEWQREHGPHLTRMLATGRYPALAKAVHDGTHVDAEESFATGLDWVLDAVAVRLARPPGS | not soluble
KELWKLRKLRNHFSIQEEAELLVHSDSVGKGKVFCEKVAEESGVLAENPGFDRWQNSINPAHSDAEILDMYDSMVVSQQDKLATKVVSQHATES | not soluble
MSARSLYQDTAVAALRDDLALALCAAAHHGLGEGVCNHFSVALPGQAGAFLLNPRGLMWSEVRAEDIVLVDAAGNKLAGRHEVEPTAMFIHAAIHQVAGKACVLHTHMPYATALTLTEARMLDTTLSQNAMRFHGRVAADRRYNGLALDAAEGERIARAMDGADIAFLGNHGVVVCGERIDYAFDDLYYLERACCAQVLAESSGRPLVPLDAALAASVAGQARSERLQSTLFFEALRRALGLEHHHHHH | not soluble
MLFLFVDGLGLGGALEDLFPFLLALAPTPLDATLGVEGLPQSGTGQTALLTGENAARLLGHHQGPFPSPRLRPLLAQGLYAWAKGKGLRVLHANGYRPDYLRRATEGKRLLLSAFAQAARLAGIPLLPLGHPLALLPGFWEDPYGAGAKAAALARAFDLVVLEYWALDLAAHRHPESLPDRFRELTLFLQGFLAEGGVLLLASDHGNAEEPWHPRHTLNPVPLVYTEEAPPPPEDLTGVFPWLRTIITSKTNKSDRNT | soluble
MMALDDTVTIKPIRAEHVESFHRALDAVSRERKYLSFLEAPPLEAVRAFVLDMIENDHPQFVAIADGDVIGWCDIRRQDRATRAHCGTLGMGILPAYRNKGLGARLMRRTLDAAHEFGLHRIELSVHADNARAIALYEKIGFAHEGRARDAVSIDGHYIDSLNMAIIFGN | soluble
IDFRTNKSKDAVIVVELASPAAIVDVKRVQEGLSIDLMNTSVKDEQLYLLDVKDFATVVESVEVFRDTSTTRLVAYIDEEYTHDYRLTGRYLEITVSKLKPNEKV | not soluble
